Reference: PMC6735382

How the values were obtained:
[1] = target: Clover-PPARγ1 (human peroxisome proliferator-activated receptor gamma isoform 1, N-terminally labeled with Clover) (human) (UniProt P37231)
[2] = target: Clover-PPARγ1 (human peroxisome proliferator-activated receptor gamma isoform 1, N-terminally labeled with Clover) (human) (UniProt P37231); experiment: FRET or BRET; flow cytometry-based FRET (Clover donor, mRuby2 acceptor) in living, stably transduced HEK293T cells; percent FRET-positive among Clover/mRuby2-double positive cells and FRET efficiency from fluorescence medians; N-CoR2 WT cells also treated 24 h with DMSO, 1 µM rosiglitazone, 10 µM GW9662 or both

UniProt P37231, sequence (P37231 29-505): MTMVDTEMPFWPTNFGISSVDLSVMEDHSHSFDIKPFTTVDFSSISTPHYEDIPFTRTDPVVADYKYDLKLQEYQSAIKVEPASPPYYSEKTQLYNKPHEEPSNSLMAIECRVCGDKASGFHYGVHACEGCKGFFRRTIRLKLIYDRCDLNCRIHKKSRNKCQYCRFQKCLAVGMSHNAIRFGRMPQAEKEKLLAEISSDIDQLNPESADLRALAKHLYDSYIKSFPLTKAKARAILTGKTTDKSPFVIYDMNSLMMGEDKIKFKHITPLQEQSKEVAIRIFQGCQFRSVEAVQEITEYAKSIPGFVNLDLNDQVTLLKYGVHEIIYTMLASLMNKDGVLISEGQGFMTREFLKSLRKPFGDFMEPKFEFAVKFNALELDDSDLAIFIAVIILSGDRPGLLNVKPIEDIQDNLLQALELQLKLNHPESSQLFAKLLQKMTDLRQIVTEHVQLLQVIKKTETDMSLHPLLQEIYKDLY

PPARγ-dependent transactivation (PPRE reporter p(AOX)3-TK-Luc) in HEK293T cells, 1 µM rosiglitazone 24 h against DMSO [1]: 3.5 fold | percent FRET-positive cells [2]: 70%
Substance: N-CoR2 WT-mRuby2 (N-terminally truncated human nuclear receptor co-repressor 2 with ID2 and ID1, C-terminally labeled with mRuby2) (domain or fragment)
